Results published in US20240132624A1 (Ablynx, published 2024).

Key:
human FcRn/b2M [1] = target: T1, human FcRn/b2M (human, UniProt P61769 21-119, biotinylated); experiment: SPR off-rate pH 6.0
T1 construct: bought recombinant biotinylated protein (ACRO FCM-H82W4 or Immunitrack ITF01); also called hFcRn; hFcRn/hb2M

human FcRn/b2M [2] = target: T1, human FcRn/b2M; experiment: SPR pH 6.0
human FcRn/b2M [3] = target: T1, human FcRn/b2M; experiment: SPR pH 6.0; remark: listed apart in the source
cyno FcRn/b2M = target: T2, cyno FcRn/b2M (cyno, UniProt Q8SPV9 24-297; Q8SPW0 21-119, biotinylated); experiment: SPR pH 6.0
T2 construct: bought recombinant biotinylated protein (Immunitrack ITF05 or ACRO FCM-C82W5); also called cFcRn; cFcRn/cb2M
T2 sequence (Q8SPV9 24-297 limits assumed, chain 1 of 2): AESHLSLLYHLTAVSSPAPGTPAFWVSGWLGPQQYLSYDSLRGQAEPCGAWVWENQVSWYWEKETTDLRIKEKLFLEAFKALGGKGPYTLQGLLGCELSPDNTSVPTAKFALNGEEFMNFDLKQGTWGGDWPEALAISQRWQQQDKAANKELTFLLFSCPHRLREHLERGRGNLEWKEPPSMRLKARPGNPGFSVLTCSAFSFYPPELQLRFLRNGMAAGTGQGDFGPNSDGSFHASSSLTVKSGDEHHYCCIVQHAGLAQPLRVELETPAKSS
T2 sequence (Q8SPW0 21-119 limits assumed, chain 2 of 2): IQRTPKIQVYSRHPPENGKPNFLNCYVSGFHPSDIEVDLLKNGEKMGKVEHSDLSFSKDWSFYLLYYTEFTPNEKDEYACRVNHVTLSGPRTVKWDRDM

T1 sequence (chain, as listed by the source limits assumed, chain 1 of 2): as the sequence (Q8SPV9 24-297 limits assumed, chain 1 of 2) above, with D39N, Q44E, S99G, G189S, N190S, M217L, T269S counted along it
T1 sequence (P61769 21-119 limits assumed, chain 2 of 2): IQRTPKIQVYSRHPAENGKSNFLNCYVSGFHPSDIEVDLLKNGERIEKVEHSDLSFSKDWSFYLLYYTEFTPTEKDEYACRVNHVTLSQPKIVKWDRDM

Binder | binding result (human FcRn/b2M [1]) | other results
T026301055 (VHH, name in Kabat numbering, tagless) VHH: EVQLVESGGGVVQPGGSLRLSCAASTFTFSSYDMYWVRQAPGKGLEWVSAISSGGGSTDYADSVKGRFTISRDNSKNTLYLQMNSLRPEDTALYYCAADTLYTSLTKYSYWGQGTLVTVSS | no binding | –
T026301077 (VHH, name in Kabat numbering, tagless) VHH: EVQLVESGGGVVQPGGSLRLSCAASTFTFSEYDMYWVRQAPGKGLEWVSAISQGGGSTDYADSVKGRFTISRDNSKNTLYLQMNSLRPEDTALYYCAADTLYTSLTKYSYWGQGTLVTVSS | no binding | –
T026301070 (VHH, name in Kabat numbering, tagless) VHH: EVQLVESGGGVVQPGGSLRLSCAASGFTFSEYDMYWVRQAPGKGLEWVSAISQGGGSTDYADSVKGRFTISRDNSKNTLYLQMNSLRPEDTALYYCAADTLYTSLTSYSYWGQGTLVTVSS | – | koff (human FcRn/b2M [2]): 0.0046 s⁻¹; Kd (human FcRn/b2M [3]): 150 nM; Kd (cyno FcRn/b2M): 140 nM
T026301080 (VHH, name in Kabat numbering, tagless) VHH: EVQLVESGGGVVQPGGSLRLSCAASGFTFSSYDMYWVRQAPGKGLEWVSAISSGGGSTDYADSVKGRFTISRDNSKNTLYLQMNSLRPEDTALYYCAADTLYTSLTSYSYWGQGTLVTVSS | – | koff (human FcRn/b2M [2]): 0.0051 s⁻¹; Kd (human FcRn/b2M [3]): 150 nM; Kd (cyno FcRn/b2M): 130 nM
T026301120 (VHH, name in Kabat numbering, tagless) VHH: EVQLVESGGGVVQPGGSLRLSCAASTFTFSEYDMYWVRQAPGKGLEWVSAISQGGGSTDYADSVKGRFTISRDNSKNTLYLQMNSLRPEDTALYYCAADTLYTDLTSYSYWGQGTLVTVSS | no binding | –
T026301131 (VHH, name in Kabat numbering, tagless) VHH: EVQLVESGGGVVQPGGSLRLSCAASTFTFSSYDMYWVRQAPGKGLEWVSAISSGGGSTDYADSVKGRFTISRDNSKNTLYLQMNSLRPEDTALYYCAADTLYTDLTSYSYWGQGTLVTVSS | no binding | –
T026301066 (VHH, name in Kabat numbering, tagless) VHH: EVQLVESGGGVVQPGGSLRLSCAASGFTFSEYAMYWVRQAPGKGLEWVSAISSGGGSTDYADSVKGRFTISRDNSKNTLYLQMNSLRPEDTALYYCAADTLYTDLTKYSYWGQGTLVTVSS | no binding | –
T026301106 (VHH, name in Kabat numbering, tagless) VHH: EVQLVESGGGVVQPGGSLRLSCAASTFTFSSYDMYWVRQAPGKGLEWVSAISQGGGSTDYADSVKGRFTISRDNSKNTLYLQMNSLRPEDTALYYCAADTLYTDLTSYSYWGQGTLVTVSS | no binding | –
T026301101 (VHH, name in Kabat numbering, tagless) VHH: EVQLVESGGGVVQPGGSLRLSCAASTFTFSSYAMYWVRQAPGKGLEWVSAISSGGGSTDYADSVKGRFTISRDNSKNTLYLQMNSLRPEDTALYYCAADTLYTDLTKYSYWGQGTLVTVSS | no binding | –
T026301057 (VHH, name in Kabat numbering, tagless) VHH: EVQLVESGGGVVQPGGSLRLSCAASGFTFSEYAMYWVRQAPGKGLEWVSAISQGGGSTDYADSVKGRFTISRDNSKNTLYLQMNSLRPEDTALYYCAADTLYTSLTSYSYWGQGTLVTVSS | – | koff (human FcRn/b2M [2]): 0.016 s⁻¹; Kd (human FcRn/b2M [3]): 390 nM; Kd (cyno FcRn/b2M): 260 nM
T026301063 (VHH, name in Kabat numbering, tagless) VHH: EVQLVESGGGVVQPGGSLRLSCAASTFTFSSYAMYWVRQAPGKGLEWVSAISQGGGSTDYADSVKGRFTISRDNSKNTLYLQMNSLRPEDTALYYCAADTLYTSLTWYSYWGQGTLVTVSS | – | koff (human FcRn/b2M [2]): 0.005 s⁻¹; Kd (human FcRn/b2M [3]): 62 nM; Kd (cyno FcRn/b2M): 41 nM
T026301056 (VHH, name in Kabat numbering, tagless) VHH: EVQLVESGGGVVQPGGSLRLSCAASTFTFSEYDMYWVRQAPGKGLEWVSAISQGGGSTDYADSVKGRFTISRDNSKNTLYLQMNSLRPEDTALYYCAADTLYTDLTKYSYWGQGTLVTVSS | no binding | –
T026301129 (VHH, name in Kabat numbering, tagless) VHH: EVQLVESGGGVVQPGGSLRLSCAASGFTFSEYDMYWVRQAPGKGLEWVSAISQGGGSTDYADSVKGRFTISRDNSKNTLYLQMNSLRPEDTALYYCAADTLYTDLTKYSYWGQGTLVTVSS | no binding | –
T026301108 (VHH, name in Kabat numbering, tagless) VHH: EVQLVESGGGVVQPGGSLRLSCAASTFTFSEYAMYWVRQAPGKGLEWVSAISQGGGSTDYADSVKGRFTISRDNSKNTLYLQMNSLRPEDTALYYCAADTLYTDLTSYSYWGQGTLVTVSS | no binding | –
T026301068 (VHH, name in Kabat numbering, tagless) VHH: EVQLVESGGGVVQPGGSLRLSCAASGFTFSSYDMYWVRQAPGKGLEWVSAISQGGGSTDYADSVKGRFTISRDNSKNTLYLQMNSLRPEDTALYYCAADTLYTDLTKYSYWGQGTLVTVSS | no binding | –
T026301093 (VHH, name in Kabat numbering, tagless) VHH: EVQLVESGGGVVQPGGSLRLSCAASTFTFSSYDMYWVRQAPGKGLEWVSAISSGGGSTDYADSVKGRFTISRDNSKNTLYLQMNSLRPEDTALYYCAADTLYTSLTSYSYWGQGTLVTVSS | no binding | –

Binder | binding result (human FcRn/b2M [1]) | other results
T026301095 (VHH, name in Kabat numbering, tagless) VHH: EVQLVESGGGVVQPGGSLRLSCAASGFTFSEYDMYWVRQAPGKGLEWVSAISSGGGSTDYADSVKGRFTISRDNSKNTLYLQMNSLRPEDTALYYCAADTLYTDLTSYSYWGQGTLVTVSS | no binding | –
T026301116 (VHH, name in Kabat numbering, tagless) VHH: EVQLVESGGGVVQPGGSLRLSCAASGFTFSEYDMYWVRQAPGKGLEWVSAISSGGGSTDYADSVKGRFTISRDNSKNTLYLQMNSLRPEDTALYYCAADTLYTDLTKYSYWGQGTLVTVSS | no binding | –
T026301130 (VHH, name in Kabat numbering, tagless) VHH: EVQLVESGGGVVQPGGSLRLSCAASTFTFSEYDMYWVRQAPGKGLEWVSAISSGGGSTDYADSVKGRFTISRDNSKNTLYLQMNSLRPEDTALYYCAADTLYTDLTSYSYWGQGTLVTVSS | no binding | –
T026301104 (VHH, name in Kabat numbering, tagless) VHH: EVQLVESGGGVVQPGGSLRLSCAASGFTFSEYAMYWVRQAPGKGLEWVSAISQGGGSTDYADSVKGRFTISRDNSKNTLYLQMNSLRPEDTALYYCAADTLYTDLTKYSYWGQGTLVTVSS | no binding | –
T026301087 (VHH, name in Kabat numbering, tagless) VHH: EVQLVESGGGVVQPGGSLRLSCAASGFTFSEYDMYWVRQAPGKGLEWVSAISQGGGSTDYADSVKGRFTISRDNSKNTLYLQMNSLRPEDTALYYCAADTLYTSLTWYSYWGQGTLVTVSS | – | koff (human FcRn/b2M [2]): 0.0011 s⁻¹; Kd (human FcRn/b2M [3]): 25 nM; Kd (cyno FcRn/b2M): 20 nM
T026301092 (VHH, name in Kabat numbering, tagless) VHH: EVQLVESGGGVVQPGGSLRLSCAASGFTFSSYDMYWVRQAPGKGLEWVSAISSGGGSTDYADSVKGRFTISRDNSKNTLYLQMNSLRPEDTALYYCAADTLYTDLTKYSYWGQGTLVTVSS | no binding | –
T026301058 (VHH, name in Kabat numbering, tagless) VHH: EVQLVESGGGVVQPGGSLRLSCAASTFTFSEYAMYWVRQAPGKGLEWVSAISQGGGSTDYADSVKGRFTISRDNSKNTLYLQMNSLRPEDTALYYCAADTLYTDLTKYSYWGQGTLVTVSS | no binding | –
T026301069 (VHH, name in Kabat numbering, tagless) VHH: EVQLVESGGGVVQPGGSLRLSCAASGFTFSSYDMYWVRQAPGKGLEWVSAISQGGGSTDYADSVKGRFTISRDNSKNTLYLQMNSLRPEDTALYYCAADTLYTSLTSYSYWGQGTLVTVSS | – | Kd (cyno FcRn/b2M): 23 nM
T026301118 (VHH, name in Kabat numbering, tagless) VHH: EVQLVESGGGVVQPGGSLRLSCAASGFTFSSYDMYWVRQAPGKGLEWVSAISSGGGSTDYADSVKGRFTISRDNSKNTLYLQMNSLRPEDTALYYCAADTLYTDLTSYSYWGQGTLVTVSS | no binding | –
T026301099 (VHH, name in Kabat numbering, tagless) VHH: EVQLVESGGGVVQPGGSLRLSCAASGFTFSEYDMYWVRQAPGKGLEWVSAISSGGGSTDYADSVKGRFTISRDNSKNTLYLQMNSLRPEDTALYYCAADTLYTSLTWYSYWGQGTLVTVSS | – | Kd (human FcRn/b2M [3]): 30 nM
T026301065 (VHH, name in Kabat numbering, tagless) VHH: EVQLVESGGGVVQPGGSLRLSCAASTFTFSEYDMYWVRQAPGKGLEWVSAISQGGGSTDYADSVKGRFTISRDNSKNTLYLQMNSLRPEDTALYYCAADTLYTDLTWYSYWGQGTLVTVSS | no binding | –
T026301114 (VHH, name in Kabat numbering, tagless) VHH: EVQLVESGGGVVQPGGSLRLSCAASTFTFSEYAMYWVRQAPGKGLEWVSAISSGGGSTDYADSVKGRFTISRDNSKNTLYLQMNSLRPEDTALYYCAADTLYTDLTKYSYWGQGTLVTVSS | no binding | –
T026301115 (VHH, name in Kabat numbering, tagless) VHH: EVQLVESGGGVVQPGGSLRLSCAASTFTFSSYDMYWVRQAPGKGLEWVSAISSGGGSTDYADSVKGRFTISRDNSKNTLYLQMNSLRPEDTALYYCAADTLYTDLTKYSYWGQGTLVTVSS | no binding | –
T026301076 (VHH, name in Kabat numbering, tagless) VHH: EVQLVESGGGVVQPGGSLRLSCAASGFTFSSYDMYWVRQAPGKGLEWVSAISQGGGSTDYADSVKGRFTISRDNSKNTLYLQMNSLRPEDTALYYCAADTLYTSLTKYSYWGQGTLVTVSS | – | koff (human FcRn/b2M [2]): 0.003 s⁻¹; Kd (human FcRn/b2M [3]): 120 nM; Kd (cyno FcRn/b2M): 37 nM
T026301062 (VHH, name in Kabat numbering, tagless) VHH: EVQLVESGGGVVQPGGSLRLSCAASTFTFSSYDMYWVRQAPGKGLEWVSAISSGGGSTDYADSVKGRFTISRDNSKNTLYLQMNSLRPEDTALYYCAADTLYTDLTWYSYWGQGTLVTVSS | no binding | –
